Reference: the DeepSol protein solubility set

Experiment: soluble on expression in E. coli; label from the status in PepcDB or PDB records

Question: With “MSLDLETDVVAGTAERKGSAEGKVEIEDRHVTKVSLPVQVVTGDENTLCYYTAIFDGHDGSSCAQYATVNLHKNLISLYRQIYSTVQRRKFLSVGLEALVKATAKSFFMTDHNFLDSARKSGVEQDAGSTACVVLLFGPDDDGQLKLLTAHAGDTRAVLCRDDRALRLTEDHRPNHKLEQRRVQQNGGEVMNIEGVWRVIFVDRKTNRLFGLATSRALGDRRMKVPKKLVTCQPTLHVYAINFETDLFLVLASDGIWDVLSDEEVVAIVSEHLDKPPQEAARFVIDEAVKRGSEDDKTCTVLFFKWRRDRFPSEGHHHHHH” as the sequence, how does the “soluble on expression in E. coli” value read?
Answer: soluble

Question: For “MSDVSTSVQSKFARLAKKKENITYMKREQLTETDKDIAPVLDLKCKDVSAIMNKFKVLMEIQDLMFEEMRETLKNDLKAVLGGKATIPEVKNSENSSSRTEFQQIINLALQKTGMVGKIEGENSKIGDDNENLTFKLEVNELSGKLDNTNEYNSNDGKKLPQGESRSYEVMGSMEETLCNIDDRDGNRNVHLEFTERESRKDGEDEFVKEMREERKFQKLKNKEEVLKASREEKVLMDEGAVLTLAADLSSATLDISKQWSNVFNILRENDFEPKFLCEVKLAFKCDGEIKTFSDLQSLRKFASQKSSMKELLKDVLPQKEEINQGGRNYGIQEKRDKTLIDSKHRAGEITSDGLSFLFLKEVKVAKPEEMKNLETQEEEFSELEELDEEASGMEDDEDTSGLEEEEEEPSGLEEEEEEEASGLEEDEASGLEEEEEQTSEQDSTFQGHTLVDAKHEVEITSDGMETTFIDSVEDSESEEEEEGKSSETGKVKTTSLTEKKASRRQKEIPFSYLVGDSGKKKLVKHQVVHKTQEEEETAVPTSQGTGTPCLTLCLASPSKSLEMSHDEHKKHSHTNLSISTGVTKLKKTEEKKHRTLHTEELTSKEADLTEETEENLRSSVINSIREIKEEIGNLKSSHSGVLEIENSVDDLSSRMDILEERIDSLEDQIEEFSKDTMQMTKQIISKERQRDIEERSRSCNIRLIGIPEKESYENRAEDIIKEIIDENFAELKKGSSLEIVSACRVPSKIDEKRLTPRHILVKFWNSSDKEKIIRASRERREITYQGTRIRLTADLSLDTLDARSKWSNVFKVLLEKGFNPRILYPAKMAFDFRGKTKVFLSIEEFRDYVLHMPTLRELLGNNIP”, which “soluble on expression in E. coli” value is on record?
Answer: soluble

Question: For “MSAEEKNLIEILEEGHKVDVVKYIDYVSAPQAGAIATFSGTTRDMFEGKTVLELRYEAYVPMATRCLSSICTTARSTWDIHKIAVAHRLGPVPVGETSVLIAVSSVHRADGLDACKFLIDELKASVPIWKKEVYTNGEIWKENSEFMEKRLELAEKRDSIVKKTVVEEHRRRGCCGSKVRVEEDEEHKDITGDNKSSS”, which “soluble on expression in E. coli” value is on record?
Answer: soluble

Question: Which “soluble on expression in E. coli” value does the source give for “MVMRGNKMRGDKKIFKKRVERFQELLKENNIDGAVIRTLSSFIYFTGTKWLRPSLLIPAEGEPRVLVVKGEAELFKERSWIEDVVEYQKAEELMLTVVKWIRENEMKRVGLEFGIERDAYLIFYKIFLRLNPTVEVVDILDLTMKLRMIKDEWELDNIRKAGKIALKGMRVAEEEIKPGRTELEIAAEVTRELMLNGSEDPKVYVSVTPRAHAEPFRDLKVPENGVVTVVIGTDWNHYYANMARTFIIGDPGERVKKAIEVKKEAIKLALEETKVGVPISTVEKKIEQFFKERGFGDYHLSGYTHGVGLLIEEPPIATIVVPQRAAKIQENMVLSIIHPPLMLPEGAIKYENTYIVKKDGLERVT” here?
Answer: soluble

Question: Which “soluble on expression in E. coli” value does the source give for “MGSSPAPFADIGKKAKDLLNKDYIFDHKFTLTMLSATGTEFVATGLKKDDFFFGDISTLYKGQNTIVDLKIDSHSSVSTKVTLKNLLPSAKAVISFKIPDHKSGKLDVQYVHPHATLNSSIGLNPTPLLDLSATIGSQNVCLGGEVSFDTASSSLTKYNAGIGFNNQGVSAALILEDKGESLRATYVHTVNPTTSFGAELIRRFSNYNNSFTVGSSHSVDQFTVVKTRFSNSGKAGMVVQREWRPKSHITFSAEYDSKAVTSSPKLGLALALKP” here?
Answer: soluble

Question: For “MSLGKKLKIFFIDDDIALGHICTRIMQEEGYEVLYQTSLNGAKACIVETHPDMIVLDVEIGNKNGIEAVPELKAIAPNTPILFISSHTNSQLVVQALSAGAVAYLKKPLEIDELIAYIKRYAISHPYQIKIGSLLLDTDTQLLCTKELRVIKQLSEAEYKLLKLLVAYKEQLVERRQIEEELWGKVNGNEQGINNLISKLRKYLSIDPTIELVTIPRNGYKLSVNLSEGHHHHHH”, which “soluble on expression in E. coli” value is on record?
Answer: soluble

Question: Which “soluble on expression in E. coli” value does the source give for “MGSDKIHHHHHHVTYGDNVKPINDALLTEFPKEKRYLVYDKKFVKNPEAWSAEYALPYRRLRFIRLAYLLATSKHLFIDNYIGEYSVAPIRQGTKRIQLWHAAGTLKKFGLTSSRSLMVPKHVLRRFKRVYQRYGDFIVPGEACAKQFMAPHDLHRTVFKTLGVPRTDYWFNEQHQTVKKQLSDIYVKPKRRILLYAPTYREYNGMEGQTVRQLEQLTDQGWTILVKLHPTVRSMFTHQKAHVHFVTDEYSINDYLLITDVLVTDYSSIPFESCLLGVPTVLYTPDIDTYRQIPGIIDSYPDPLPVTCTDQFEIMLNWINSDVSLQESRMAMEQFKTIWYTEQPGQATRRIVDHYYRKVR” here?
Answer: not soluble

Question: Which “soluble on expression in E. coli” value does the source give for “LPKVSEDHLAARRSQILDGARRCFAEYGYDGATVRRLEEVTGLSRGAIFHHFKDKDGLFLALAHEDATRMADVVAHEGLVQVMRDMLAQPEQFDWLGTRLEIARRLRNDPDFRRSWSQRSAELTEATMARLARQKSAGRLRDDVPTDVLIGYLDLVLDGLVARIASGHAGDNLSAVLDLVEESVRRRD” here?
Answer: not soluble

Question: With “MIIRIVQNIQRINKEGNAPLYISFYLGKEKVVIPCKLSVPTTKFDSKTGMLRGTNKEAKDINLIIERLKAKVNDILVKHRLKNLTLNKEAFMREYNNPSDFKSFHDFVASYMKTYSRRLEIGTFRHHKSCMRKFKEYCEGLQFHELTEDFLRDYLIYMKKTLCNADSTAQRNLSTIKIYVSAAIKKGYMENDPFKDFGVKRIKSNIDYLTEEELIKFISLYYDRRLPERLERTLGFFLFMCFTSLHISDARHVCLEQINNGILTYYRIKNRNCKPEAIKIPLSIPAFKIIEELQGKRKEGH” as the sequence, how does the “soluble on expression in E. coli” value read?
Answer: not soluble

Question: With “MGSDKIHHHHHHMSHANQAIPLDEEAIFDAMPMEEEGQFANHATPLIRNCWYVCARRDEVGRTPISRRLLDTDVVMYRTRDGRPVAMHNRCPHRAFPLAKGHVEGDRLVCGYHGMQFEPDGLCAHLPAISHVPANACVQTYPIADRGPLTWIWMGDANLADEALIPELPWLASSEWGSVTGDFHIKADYVSMHENLIDQTHFPFLHPGTVGTPEYARASMNATTEGDQVLIHRRLDNAPPPGIYGKPADIMHKNVDRTSEARFVSPAVHMAHARIFDPQPEPGKPSVYGYYITHCFTPESNHSIHYWWFNSRDYGIDDTDIDAFMYEASMQAYYEDVEALEWIMDVVLTDNEAQQFELSFAPDKPGLMARRIMHRLAMSERG” as the sequence, how does the “soluble on expression in E. coli” value read?
Answer: not soluble

Question: For “MLGGDWTDGTMTDFKWRHFQGDVILWAVRWYCRYPISYRDLEEMLAERGISVDHTTIYRWVQCYAPEMEKRLRWFWRRGFDPSWRLDETYVKVRGKWTYLYRAVDKRGDTIDFYLSPTRSAKAAKRFLGKALRGLKHWEKPATLNTDKAPSYGAAITELKREGKLDRETAHRQVKYLNNVVEADHGKLKILIKPVRGFKSIPTAYATIKGFEVMRALRKGQARPWCLQPGIRGEVRLVERAFGIGPSALTEAMGMLNHHFAAAA”, which “soluble on expression in E. coli” value is on record?
Answer: not soluble

Question: For “STKFPTLKRLFGEAQAAWLVKESEQAVLEIDAFCKQHHIDAQLSLKGVYYTATNHVQAGSMQPVVDELSRLGVNSWRRCKEDELHANTGSPRHLEGFHSSVAASVQPALLARGLRRVALEMGIEIFENTPMTKLDFGQPATVSTPDAQIKAKQVVLALNAWMVEHFTQFKNSIVVVSSDMVITKPLGESLRKTGWQAGTSVLDSRIFVHYYRDTPDGRLMLGKGGNQFSFNNQVDVMFNKPTRYQNLLRKSFDKLFPSLKEAEFEYSWTGGSDRSTSGFPFFGKLNEQRNVFYGFGYSGNGVAQTRMGGKILSSMVLGLDNEWTRSGLAKGPLGHFPPEPFRWIGAMTVRNAVRRKEEAEDCGQKPFIWDKWLAKLAGPAGKADKLD”, which “soluble on expression in E. coli” value is on record?
Answer: not soluble

Question: With “MSGRGKVKSEPMKVVFINTQYVETDARSFKTVVQELTGKNAIVAAGPFDSPSAFDGRCYDGGSKIGEDTRQLHGGGGGGGRMGTTTEFDRLFKEMPHMEELYKLWSEY” as the sequence, how does the “soluble on expression in E. coli” value read?
Answer: soluble

Question: With “MSLQIAGKVVVVTGGGNGIGQALCEAFHKAGAAKVVVADLDQARAEAVAASIGGAAFKCDVANEADIKHVIEETERQFGPIDLFCSNAGIGGGFDPMAENAGGASDEPFMKSWMIHVMAHVYAARHLVPRYRARGGGYFLNTISAAGLLSQVGSPAYSATKHGAVGFAESLAIAHKAHNIRVSILCPQGVDTNMLRSIPKGPQSADGDLTAEQVAKDALQGIEQETFLILPHPQVIDYMRKKTEGHHHHHH” as the sequence, how does the “soluble on expression in E. coli” value read?
Answer: soluble

Question: For “VSRDENSWLIDGATPLEEVTRVLDIAYFPDEENYETISGFMMYMLRKIPKKTDSVVYGKYKFEVIDTENFKIDQILVSLVKEQE”, which “soluble on expression in E. coli” value is on record?
Answer: not soluble

Question: Which “soluble on expression in E. coli” value does the source give for “GPGSMWTTSMALMSKRSMKYQTKLRHRFRNPSVLPLKQTKAQRDETIRSVLQVRNINPANQSSYRYVEQRLYSTGSRLDREGVKLNTTYALQGLGDLEPLRNSKSFGFSEREALKYDSLQQAAKYEAPPVPFTPLAARKLAEGKLWPSAPEPDGMLSKEVPYLRHRANMSPSAQTFADKIAYHLRRSLKACPAHIAEQMDFAQLIIEEVIASRRSKLVYIVWATVDPAARFAMEPQLHRLNHWVQRLIMERIRTRPNIPQIAWVWNGGRLERELPRELKEEMQAYASDNSSTLEMRVRYLKEMDTVNQRMRNIPWFMPYLWSKEEKAGKTRRMRKDLEEYEQRRLAAKKDQRESERDMSGRSVAPQIGAPPAYVR” here?
Answer: not soluble

Question: With “MGSDKIHHHHHHDDNSYSLGDIWIAVATVVPEGNNVYYLRLDDGDKLWPAATNYPNYQPKPNQRALVNFTILADSTQSNLGGFSHYIKVNAIHNILTKSIAKNEGAANDSIYGTDPVSIYNNNMWIGDGYLNIYFETLWGGKTAHFINLIQPDAENDPYTLEFRHNAYDDPQYTIGAGRVAFNLSSLPDTKGETVDLVVNYWTSEGKQAYKLKYNSDKTKMEDTSQGYTNDSISNITDMK” as the sequence, how does the “soluble on expression in E. coli” value read?
Answer: not soluble

Question: For “MSLRDTQTQLRNEMIYSVFVRNYSEAGNFAGVTADLQRIKDLGTDILWLLPINPIGEVNRKGTLGSPYAIKDYRGINPEYGTLADFKALTDRAHELGMKVMLDIVYNHTSPDSVLATEHPEWFYHDADGQLTNKVGDWSDVKDLDYGHHELWQYQIDTLLYWSQFVDGYRCDVAPLVPLDFWLEARKQVNAKYPETLWLAESAGSGFIEELRSQGYTGLSDSELYQAFDMTYDYDVFGDFKDYWQGRSTVERYVDLLQRQDATFPGNYVKMRFLENHDNARMMSLMHSKAEAVNNLTWIFMQRGIPLIYNGQEFLAEHQPSLFDRDTMVADRHGDVTPLIQKLVTIKQLPLLRAADYQLAVVEEGIVKITYRAAGEALTAWIPLKGQVTAVATKLAAGSYQNLLTDGPTEVVDGKLTVDGQPVLIKYVTNTAVTKVADQSNEGHHHHHH”, which “soluble on expression in E. coli” value is on record?
Answer: soluble

Question: For “MRSDTSVEPEGANFIAEFFGHRVYPEVVSTEAARNDQATGTCPFLTAAKLVETSCVKAETSRGVCVVNTAVDNERYDWLVCPNRALDPLFMSAASRKLFGYGPTEPLQFIAAPTLADQAVRDGIREWLDRGVHVVAYFQEKLGGELSISKTDSSPEFSFDWTLAEVESIYPVPKIKRYGVLEIQTMDFHGSYKHAVGAIDIALVEGIDFHGWLPTPAGRAALSKKMEGPNLSNVFKRTFYQMAYKFALSGHQRCAGTGFAIPQSVWKSWLRHLANPTLIDNGDGTFSLGDTRNDSENAWIFVFELDPDTDASPRPLAPHLEIRVNVDTLIDLALRESPRAALGPSGPVATFTDKVEARMLRFWPKTRRRRSTTPGGQRGLFDA”, which “soluble on expression in E. coli” value is on record?
Answer: soluble
